Experimental data: US20160083465A1 (AVEO PHARMACEUTICALS, published 2016)

T1: untagged recombinant human GDF15 (rhGDF15 (Peprotech)) (human, UniProt Q99988 197-308, limits assumed)
T1 construct: Bought from Peprotech
T1 sequence (looked up): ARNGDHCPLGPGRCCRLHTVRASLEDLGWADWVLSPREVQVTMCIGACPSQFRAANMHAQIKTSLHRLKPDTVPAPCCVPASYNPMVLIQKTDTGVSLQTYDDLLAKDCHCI

T2: mouse IgG1 Fc-mature human GDF15 fusion protein (mFc-rhGDF15) (mouse; human)
T2 construct: Made in CHOK1SV cells, purified by Protein A and size exclusion; also called mouse Fc fused to human GDF15
T2 chain: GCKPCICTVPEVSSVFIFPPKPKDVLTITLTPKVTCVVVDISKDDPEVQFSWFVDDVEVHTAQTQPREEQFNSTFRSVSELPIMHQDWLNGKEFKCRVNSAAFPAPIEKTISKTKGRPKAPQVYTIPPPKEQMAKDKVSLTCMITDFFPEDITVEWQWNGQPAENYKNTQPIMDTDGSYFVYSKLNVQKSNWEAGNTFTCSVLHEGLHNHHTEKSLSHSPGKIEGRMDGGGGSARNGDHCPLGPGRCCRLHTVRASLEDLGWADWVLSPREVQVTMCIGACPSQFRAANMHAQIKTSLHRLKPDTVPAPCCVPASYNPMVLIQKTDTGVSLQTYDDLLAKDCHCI

T3: cleaved-rhGDF15 (human, UniProt Q99988 197-308)
T3 sequence: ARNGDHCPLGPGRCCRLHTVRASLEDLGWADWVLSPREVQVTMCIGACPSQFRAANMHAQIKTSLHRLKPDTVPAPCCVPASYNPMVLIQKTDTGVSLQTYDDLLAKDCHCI

T4: 6xHis tagged recombinant human GDF15 (His-rhGDF15) (human, UniProt Q99988 197-308)
T4 construct: Bought from R&D Systems
T4 sequence: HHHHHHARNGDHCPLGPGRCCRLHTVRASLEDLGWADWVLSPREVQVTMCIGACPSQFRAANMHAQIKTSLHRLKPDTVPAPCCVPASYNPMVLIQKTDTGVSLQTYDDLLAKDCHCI


How the values were obtained:
[1] = molecular target: T1, untagged recombinant human GDF15 …; assay: SPR Biacore T100, 37 C, antibody captured by anti-mouse IgG, antigen in solution
Protocol: (§1) Rabbit anti-mouse IgGs (GE Healthcare) were immobilized on carboxymethylated dextran CM4 sensor chips (GE Healthcare) by amine coupling, according to a standard protocol. Analyses were performed at 37° C. using PBS containing 0.05% surfactant P20 as running buffer. The antibodies were captured in individual flow cells at a flow rate of 10 μL/minute. Injection time was varied for each antibody to yield an Rmax between 30 and 60 RU. 250 μg/mL mouse Fc (Jackson ImmunoResearch, West Grove, Pa.) was injected at 30 μL/minute for 120 seconds to block non-specific binding of capture antibodies to mouse Fc portion of the recombinant GDF15 protein when needed. […] The dissociation phase was monitored for up to 1500 seconds. The surface was then regenerated with two 60-second injections of 10 mM Glycine-HCl, pH 1.7, at a flow rate of 30 μL/minute.
(§2) Kinetic parameters were determined using the kinetic function of the BIAevaluation software (GE Healthcare) with double reference subtraction.

[2] = molecular target: T2, mouse IgG1 Fc-mature human GDF15 fusion …; assay: as above
Protocol: as §1, §2

[3] = molecular target: T3, cleaved-rhGDF15; assay: as above
Protocol: as §1, §2

[4] = molecular target: T4, 6xHis tagged recombinant human GDF15 …; assay: as above
Protocol: as §1, §2

[5] = molecular target: T2, mouse IgG1 Fc-mature human GDF15 fusion …; assay: SPR Biacore T100, 37 C, purified antibody captured by anti-human IgG Fc, antigen in solution
Protocol: Goat anti-human IgGs (Fc fragment specific, Jackson ImmunoResearch, West Grove, Pa.) were immobilized on carboxymethylated dextran CM4 sensor chips by amine coupling, according to a standard protocol. Analyses were performed at 37° C. using PBS containing 0.05% surfactant P20 as running buffer. The antibodies were captured in individual flow cells at a flow rate of 10 μL/minute. Injection time was varied for each antibody to yield an Rmax between 30 and 60 RU. […] The dissociation phase was monitored for up to 1200 seconds. The surface was then regenerated with two 60-second injections of 10 mM Glycine-HCl, pH 2.25, at a flow rate of 30 μL/minute.
as §2

[6] = molecular target: T2, mouse IgG1 Fc-mature human GDF15 fusion …; assay: BLI Octet QK, 30 C, antibody from supernatant on anti-human Fc sensor, 400 nM mFc-rhGDF15
Protocol: The Octet analysis was performed at 30° C. using 1× Kinetics Buffer (ForteBio, Inc.) as assay buffer. Anti-human IgG Fc Capture (AHC) biosensors (ForteBio, Inc.) were used to capture human antibodies onto the sensors. Sensors were saturated in assay buffer for at 300 seconds before the assay. […] Baseline was established by dipping the sensors into 1× assay buffer for 200 seconds. Next, association was monitored for 220 seconds in 400 nM mFc-rhGDF15 protein, and dissociation was followed for 600 seconds in buffer alone.
Kinetic parameters of the antibody, kₐ, kd, and KD were determined.

Row | Kd [1] [nM] | koff [1] [s⁻¹] | kon [1] [M⁻¹ s⁻¹] | Kd [2] [nM] | koff [2] [s⁻¹] | kon [2] [M⁻¹ s⁻¹] | Kd [3] [nM] | koff [3] [s⁻¹] | kon [3] [M⁻¹ s⁻¹] | Kd [4] [nM] | koff [4] [s⁻¹] | kon [4] [M⁻¹ s⁻¹] | Kd [5] [nM] | koff [5] [s⁻¹] | kon [5] [M⁻¹ s⁻¹] | Kd [6] [nM] | koff [6] [s⁻¹] | kon [6] [M⁻¹ s⁻¹] | Binder
1 | 0.21 | 0.0046 | 2.2e+07 | 0.17 | 0.00068 | 4.5e+06 | 0.17 | 0.002 | 1.2e+07 | 0.051 | 0.0015 | 2.9e+07 |  |  |  |  |  |  | 06C11 (antibody, mouse IgG1, kappa, Murine monoclonal from hybridoma, IgG1 kappa; also called antibody 06C11) heavy: QVTLKESGPGILQPSQTLSLTCSFSGFSLNTYGMGVSWIRQPSGKGLEWLAHIYWDDDKRYNPSLKSRLTISKDASNNRVFLKITSVDTADTATYYCAQRGYDDYWGYWGQGTLVTISAAKTTPPSVYPLAPGSAAQTNSMVTLGCLVKGYFPEPVTVTWNSGSLSSGVHTFPAVLQSDLYTLSSSVTVPSSTWPSETVTCNVAHPASSTKVDKKIVPRDCGCKPCICTVPEVSSVFIFPPKPKDVLTITLTPKVTCVVVDISKDDPEVQFSWFVDDVEVHTAQTQPREEQFNSTFRSVSELPIMHQDWLNGKEFKCRVNSAAFPAPIEKTISKTKGRPKAPQVYTIPPPKEQMAKDKVSLTCMITDFFPEDITVEWQWNGQPAENYKNTQPIMDTDGSYFVYSKLNVQKSNWEAGNTFTCSVLHEGLHNHHTEKSLSHSPGK light: DIVMTQSQKFMSTSVGDRVSVTCKASQNVGTNVAWFQQKPGQSPKALIYSASYRYSGVPDRFTGSGSGTDFILTISNVQSEDLAEYFCQQYNNYPLTFGAGTKLELKRADAAPTVSIFPPSSEQLTSGGASVVCFLNNFYPKDINVKWKIDGSERQNGVLNSWTDQDSKDSTYSMSSTLTLTKDEYERHNSYTCEATHKTSTSPIVKSFNRNEC
2 | 0.071 | 0.0022 | 3.1e+07 | 0.22 | 0.00033 | 1.7e+06 | 0.11 | 0.0006 | 5.7e+06 | 0.096 | 0.00042 | 4.4e+06 |  |  |  |  |  |  | 14F11 (antibody, mouse IgG1, kappa, Murine monoclonal from hybridoma, IgG1 kappa; also called antibody 14F11) heavy: QVTLKESGPGILQPSQTLSLTCSFSGFSLSTYGMGVGWIRQPSGKGLEWLADIWWDDDKYYNPSLKSRLTISKDTSSNEVFLKIAIVDTADTATYYCARRGHYSAMDYWGQGTSVTVSSAKTTPPSVYPLAPGSAAQTNSMVTLGCLVKGYFPEPVTVTWNSGSLSSGVHTFPAVLQSDLYTLSSSVTVPSSTWPSETVTCNVAHPASSTKVDKKIVPRDCGCKPCICTVPEVSSVFIFPPKPKDVLTITLTPKVTCVVVDISKDDPEVQFSWFVDDVEVHTAQTQPREEQFNSTFRSVSELPIMHQDWLNGKEFKCRVNSAAFPAPIEKTISKTKGRPKAPQVYTIPPPKEQMAKDKVSLTCMITDFFPEDITVEWQWNGQPAENYKNTQPIMDTDGSYFVYSKLNVQKSNWEAGNTFTCSVLHEGLHNHHTEKSLSHSPGK light: DIVMTQSQKFMSTSVGDRVSVTCKASQNVGTNVAWYQQKPGQSPKALIYSPSYRYSGVPDRFTGSGSGTDFTLTISNVQSEDLAEYFCQQYNSYPHTFGGGTKLEMKRADAAPTVSIFPPSSEQLTSGGASVVCFLNNFYPKDINVKWKIDGSERQNGVLNSWTDQDSKDSTYSMSSTLTLTKDEYERHNSYTCEATHKTSTSPIVKSFNRNEC
3 |  |  |  |  |  |  |  |  |  |  |  |  | 0.16 | 0.00046 | 3e+06 | 0.032 | 1.9e-05 | 630000 | Hu14F11-1 (antibody, human IgG1, kappa, Mouse variable regions, human IgG1 and kappa constant regions; also called Chimeric 14F11) heavy: not shown light: DIVMTQSQKFMSTSVGDRVSVTCKASQNVGTNVAWYQQKPGQSPKALIYSPSYRYSGVPDRFTGSGSGTDFTLTISNVQSEDLAEYFCQQYNSYPHTFGGGTKLEMKRTVAAPSVFIFPPSDEQLKSGTASVVCLLNNFYPREAKVQWKVDNALQSGNSQESVTEQDSKDSTYSLSSTLTLSKADYEKHKVYACEVTHQGLSSPVTKSFNRGEC
4 |  |  |  |  |  |  |  |  |  |  |  |  |  |  |  | 0.18 | 6.2e-05 | 340000 | Hu14F11-23 (antibody, human IgG1, kappa, Chimeric 06C11 heavy chain with chimeric 14F11 light chain, human IgG1 kappa; tested in supernatant; also called chimeric light 14F11 with chimeric heavy 06C11) heavy: not shown light: DIVMTQSQKFMSTSVGDRVSVTCKASQNVGTNVAWYQQKPGQSPKALIYSPSYRYSGVPDRFTGSGSGTDFTLTISNVQSEDLAEYFCQQYNSYPHTFGGGTKLEMKRTVAAPSVFIFPPSDEQLKSGTASVVCLLNNFYPREAKVQWKVDNALQSGNSQESVTEQDSKDSTYSLSSTLTLSKADYEKHKVYACEVTHQGLSSPVTKSFNRGEC
5 |  |  |  |  |  |  |  |  |  |  |  |  |  |  |  | 0.31 | 0.00022 | 710000 | Hu14F11-24 (antibody, human IgG1, kappa, Chimeric 14F11 heavy chain with chimeric 06C11 light chain, human IgG1 kappa; tested in supernatant; also called chimeric light 06C11 with chimeric heavy 14F11) heavy: not shown light: DIVMTQSQKFMSTSVGDRVSVTCKASQNVGTNVAWFQQKPGQSPKALIYSASYRYSGVPDRFTGSGSGTDFILTISNVQSEDLAEYFCQQYNNYPLTFGAGTKLELKRTVAAPSVFIFPPSDEQLKSGTASVVCLLNNFYPREAKVQWKVDNALQSGNSQESVTEQDSKDSTYSLSSTLTLSKADYEKHKVYACEVTHQGLSSPVTKSFNRGEC
6 | 0.093 | 0.0019 | 2.1e+07 | 0.21 | 0.0007 | 5.6e+06 | 0.11 | 0.00086 | 7.5e+06 | 0.081 | 0.0011 | 1.4e+07 |  |  |  |  |  |  | 01G06 (antibody, mouse IgG1, kappa, Murine monoclonal from hybridoma, IgG1 kappa; also called antibody 01G06) heavy: EVLLQQSGPELVKPGASVKIPCKASGYTFTDYNMDWVKQSHGKSLEWIGQINPNNGGIFFNQKFKGKATLTVDKSSNTAFMEVRSLTSEDTAVYYCAREAITTVGAMDYWGQGTSVTVSSAKTTPPSVYPLAPGSAAQTNSMVTLGCLVKGYFPEPVTVTWNSGSLSSGVHTFPAVLQSDLYTLSSSVTVPSSTWPSETVTCNVAHPASSTKVDKKIVPRDCGCKPCICTVPEVSSVFIFPPKPKDVLTITLTPKVTCVVVDISKDDPEVQFSWFVDDVEVHTAQTQPREEQFNSTFRSVSELPIMHQDWLNGKEFKCRVNSAAFPAPIEKTISKTKGRPKAPQVYTIPPPKEQMAKDKVSLTCMITDFFPEDITVEWQWNGQPAENYKNTQPIMDTDGSYFVYSKLNVQKSNWEAGNTFTCSVLHEGLHNHHTEKSLSHSPGK light: DIQMTQSPASLSASVGETVTITCRTSENLHNYLAWYQQKQGKSPQLLVYDAKTLADGVPSRFSGSGSGTQYSLKINSLQPEDFGSYYCQHFWSSPYTFGGGTKLEIKRADAAPTVSIFPPSSEQLTSGGASVVCFLNNFYPKDINVKWKIDGSERQNGVLNSWTDQDSKDSTYSMSSTLTLTKDEYERHNSYTCEATHKTSTSPIVKSFNRNEC
